Patent publication US20060063917A1, “Selection of peptide ligands specific for baculovirus DNA-binding protein from the FliTrxTM random peptide display library” (Vista Biologicals Corporation, priority 2004, published 2006)
No end group written: not given here.

T1: His.Tag AcNPV DBP (Autographa californica nuclear polyhedrosis virus, UniProt P41430)
T1 construct: made in house; host or cells: E. coli BL21 (DE3)
T1 sequence (P41430 whole entry, looked up): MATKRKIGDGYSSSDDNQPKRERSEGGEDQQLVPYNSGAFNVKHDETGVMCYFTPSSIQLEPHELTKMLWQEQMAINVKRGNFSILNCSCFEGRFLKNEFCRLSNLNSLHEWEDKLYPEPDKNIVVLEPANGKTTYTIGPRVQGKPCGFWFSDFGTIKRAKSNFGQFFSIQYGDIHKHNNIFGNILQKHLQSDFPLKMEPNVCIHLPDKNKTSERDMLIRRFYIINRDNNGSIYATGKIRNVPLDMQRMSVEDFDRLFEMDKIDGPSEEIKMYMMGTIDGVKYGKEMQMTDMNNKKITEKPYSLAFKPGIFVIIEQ

B1: biotinylated synthesized peptide ligand No. 4 (SEQ ID NO. 6) (peptide)
peptide: GGGGRRSGGACP
modifications: also: biotinylated, position not given here
B2: FliTrx selected peptide ligand No. 1 (…), as FliTrx protein solution (peptide, part only; not given: FliTrx scaffold, part only)
chain, part: AGRKGERGSVLQ
modifications: also: inserted in thioredoxin active-site loop of FliTrx fusion protein
B3: FliTrx selected peptide ligand No. 2 (…), as FliTrx protein solution (peptide, part only; not given: FliTrx scaffold, part only)
chain, part: AMLRAACVVRSM
modifications: also: inserted in thioredoxin active-site loop of FliTrx fusion protein
B4: FliTrx selected peptide ligand No. 3 (…), as FliTrx protein solution (peptide, part only; not given: FliTrx scaffold, part only)
chain, part: ADYGKGLRRAMG
modifications: also: inserted in thioredoxin active-site loop of FliTrx fusion protein
B5: FliTrx selected peptide ligand No. 4 (…), as FliTrx protein solution (peptide, part only; not given: FliTrx scaffold, part only)
chain, part: GGGGRRSGGACP
modifications: also: inserted in thioredoxin active-site loop of FliTrx fusion protein
B6: FliTrx selected peptide ligand No. 5 (…), as FliTrx protein solution (peptide, part only; not given: FliTrx scaffold, part only)
chain, part: PAQAQTRRRRPR
modifications: also: inserted in thioredoxin active-site loop of FliTrx fusion protein

The molecules below were run against recombinant His.Tag AcNPV DBP (Autographa californica nucleopolyhedrovirus DNA-binding protein) (Autographa californica nucleopolyhedrovirus (AcNPV)) (assay: ELISA: 2 ug His.Tag AcNPV DBP coated, 25 ug biotinylated peptide added, detected with anti-biotin BN-34-AP; empty negative control plate 0.30). Conditions: not given.

B1 showed a mean O.D. (405 nm) of 4 O.D.

What follows are molecules tested against recombinant His.Tag AcNPV DBP (Autographa californica nucleopolyhedrovirus DNA-binding protein) (Autographa californica nucleopolyhedrovirus (AcNPV)) (assay: ELISA: FliTrx protein solution coated, 6 ug His.Tag AcNPV DBP added, detected with anti-penta-His and goat anti-mouse IgG-AP; mean of duplicate; negative controls (empty plates) 0.14). Conditions: not given.

Point of comparison: B4, ELISA (O.D. λ = 405 nm) (O.D. λ = 405 nm) 1.11. Against it:
- B2 — higher, 1.21
- B3 — lower, 0.56
- B5 — higher, 1.13
- B6 — higher, 1.35

Each molecule was assayed against T1, His.Tag AcNPV DBP (assay: ELISA for His.Tag AcNPV DBP screening using the FliTrx protein solution). Conditions: wells coated with FliTrx protein solution of positive clones; 6 μg His.Tag AcNPV DBP added; mean of duplicate; mean O.D. of negative controls 0.14.
Format: binding, Autographa californica nucleopolyhedrovirus (AcNPV)
Method: (§1) ELISA Protocols for His.Tag AcNPV DBP Screening
(§2) ELISA procedure was used for analysis of His.Tag AcNPV DBP as a target. The polystyrene microtitration plates (PolySorp™ Surface, Immuno™ Plate, Nunc) were used as the solid phase for the assay. All washes were performed four times with phosphate-buffered saline (PBS) containing 0.05% (V/V) Tween® 20 (PBS-T). The substrate solution for alkaline phosphatase (p-nitrophenyl phosphate, pNPP, 1 mg/ml, in 0.2 M Tris-HCl buffer, pH 7) was from Sigma, St. Louis, Mo. The reaction was stopped by the addition of 3 M NaOH (50 μl per well). The optical density at 405 nm (O.D.λ=405 nm) was measured in a microplate colorimeter (Molecular Devices, Thermo max Microplate Reader).
1. Using the FliTrx™ Protein Solution
Wells of the microtitration plates were coated with the FliTrx™ protein solutions obtained from induced culture cell of positive clones that contain the peptides recognized by His.Tag AcNPV DBP (50 μl per well). To account for plate binders, empty plates were used as negative controls. After incubation overnight at +4° C., the plates were washed, and the uncoated attachment sites on the plates were saturated by incubation for 1 hour at 37° C. with a solution of 2% nonfat dry milk in PBS-T: PBS-T-M (200 μl per well). The plates were then washed, and an aliquot of 100 μl (6 μg) of the purified His.Tag AcNPV DBP was added to both the target plate and the control plate. Plates were incubated for. 1 hour at 37° C. The plates were then washed, and 100 μl of a 1:1,000 dilution of mouse monoclonal Ig G1 antibody to penta-His™ (QIAGEN, Valencia, Calif.) in PBS-T-M were added. After being incubated again for 1 hour at 37° C., the plates were washed, and 100 μl of a 1:1,000 dilution of goat anti-mouse IgG conjugated to alkaline phosphatase (Bio-Rad Laboratories, Hercules, Calif.) were added. After being incubated again for 1 hour at 37° C., the plates were washed, and substrate solution (200 [l per well) was added. After incubation for 1 hour at 37° C., the reaction was stopped.

Point of comparison: “AMLRAACVVRSM (baculovirus) [Peptide ligand No. 2, FliTrx selected dodecapeptide ligand recognized by His.Tag AcNPV DBP]”, “ELISA (O.D. λ = 405 nm), affinity for His.Tag AcNPV DBP” value 0.56. Against it:
- ADYGKGLRRAMG (baculovirus) [Peptide ligand No. 3, FliTrx selected dodecapeptide ligand recognized by His.Tag AcNPV DBP] — higher, 1.11
- AGRKGERGSVLQ (baculovirus) [Peptide ligand No. 1, FliTrx selected dodecapeptide ligand recognized by His.Tag AcNPV DBP] — higher, 1.21
- GGGGRRSGGACP (baculovirus) [Peptide ligand No. 4, FliTrx selected dodecapeptide ligand recognized by His.Tag AcNPV DBP] — higher, 1.13
- PAQAQTRRRRPR (baculovirus) [Peptide ligand No. 5, FliTrx selected dodecapeptide ligand recognized by His.Tag AcNPV DBP] — higher, 1.35

These molecules were tested against T1, His.Tag AcNPV DBP (assay: ELISA for His.Tag AcNPV DBP screening using the biotinylated synthesized peptide ligand). Conditions: wells coated with 2 μg His.Tag AcNPV DBP; 25 μg biotinylated peptide added; negative control (empty) plate gave 0.30.
Format: binding, Autographa californica nucleopolyhedrovirus (AcNPV)
Method: as §1, §2
2. Using the Biotinylated Synthesized Peptide Ligand
Wells of the microtitration plates were coated with 50 μl (2 μg) of purified His.Tag AcNPV DBP. To account for plate binders, empty plates were used as negative controls. After incubation overnight at +4° C., the plates were washed, and the uncoated attachment sites on the plates were saturated by incubation for 1 hour at 37° C. with PBS-T-M (200 μl per well). The plates were then washed, and an aliquot of 100 μl (25 μg) of the biotinylated synthesized peptide ligand No. 4 (SEQ ID NO. 6) (Invitrogen, Carlsbad, Calif.) was added to both the target plate and the control plate. Plates were incubated for 1 hour at 37° C. […]

With “biotinylated synthesized peptide ligand No. 4: biotinylated synthesized peptide ligand No. 4 (SEQ ID NO. 6), GGGGRRSGGACP (also: biotinylated)” the “mean O.D. value, target plate” value was “about 4.0”.
